These results are taken from the domain aggregation screens of Martell et al. (2025).

The series in a line: soluble fraction after stress (log2 fold change); higher = more stays soluble; pooled small domains, quantitative proteomics. Particulars: stress: pH 4. Put shortly: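 Small protein domains from pooled custom libraries were exposed to pH 4, then quantified with high-throughput quantitative proteomics. The fold change in how much of each domain remains soluble is read as aggregation propensity. It is given as log2, with higher values meaning more stayed soluble.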
“HMKKTPLSELTNRAVELFIETVFMERNYSVSSQRQFISALKIFTVFYPQTKIHNLSLERLQSSFDKLLN”: the “soluble fraction (log2)” value is -0.564.

Consider “HMKKTTEFAVTPEFQQRLEASPELKAAFQALTPGRQRAHLLFFAAPKQAQTRQARIEKSLPQIMAGKGLN”, for which the “soluble fraction (log2)” value is -0.0768.

As for “HMKKTVTDSVELLTFLKDIFTNTSTNKLRKMLTTGRVTVNNIVIHKAKHILVQNDVVEIGDK”, the “soluble fraction (log2)” value was -0.0253.

With “HMKKVIEFKDVSFAFEKKPILQDFNLLVQNKDRIGIVGDNGVGKSTLLNLIAERLQPQSGQVII”, the “soluble fraction (log2)” value was determined as 0.0777.

For “HMKKVSVKPILELRAAGISMRKIETLMHVSRHTISAIYKAADAYSISWDNVKDFDEDKIYEMLFPPTP”, the “soluble fraction (log2)” value is at least 0.43.

As for “HMKKYEIIFNDLKQSIVNGKYSNEERLPPEETLAKKYQTSRVPVQQALNALVGIGMVKRIAGSGTYVTY”, the “soluble fraction (log2)” value was -0.212.

On to “HMKKYFPPKSRFNPNKYLLKDWMALGLSEKQSQSILNFIQRGIYSNSALEKIYVMPEEVFTLIKDSTYYEE”, for which the “soluble fraction (log2)” value was -1.26.

For “HMKKYIEIYNYYKQLIESEQLKSGDKMPSVRKATKIFNVSKTTVQNAYFDLQADGYIIAAPKSGYYVTEM”, the “soluble fraction (log2)” value was -0.7.

In the case of “HMKKYLNIYNIIVNKIESKEYQSNDKLPSEKELMDQYNVSRDTVRKSLNMLEQNGYIQKTKGKGSFVLDIN”, the “soluble fraction (log2)” value amounted to 0.409.

As to “HMKLEEITIIVPSLRLDNFVSDLARTSRSKAVQIIDSERVFINGQNETKASKQVKLGDVITSA”, the “soluble fraction (log2)” value was -0.767.

For “HMKLHPRDQERTRAISARGERLYAVTVGDLRRRIGEMLEWFGRQIESQEPMRVAKAARRITDFFDQVEAFT”, the “soluble fraction (log2)” value was -2.15.

Regarding “HMKLIRLGKAAGELNVGMSTLAEFLQSKGHSVDPNPNTKLTPEQYALLRMEFAADQTLKKLTKQP”, the “soluble fraction (log2)” value was -0.117.

As for “HMKLKHANGNHPLTQQEKQNMIEEAAKHYGDYMTALGFDWKQDPNSSDTPMRVAKAFVNDLAEGVY”, the “soluble fraction (log2)” value is -0.348.

Regarding “HMKLLLSANISKLRKKYSMTQEQLAEALGVTFASVSKWERGVATPELKLIAEMADMFEVSIDALIGYEFRN”, the “soluble fraction (log2)” value is -1.41.

With “HMKLPIEKESYRIIWDLEEESFRIRLKISENSPQEEKNILINQAIEDIENITGEPIDKSPYYVLYE”, the “soluble fraction (log2)” value was -1.04.

Take “HMKLPNSFGSIQKLSGNRRKPYRVVKTIGWDENGKQIRKTLGYYETRAKALQELALFNEKPYD”: the “soluble fraction (log2)” value came out at 0.22.

For “HMKLTALWTANPKISAPIYSEPSTQSKTLGRIYQGASVKVYSFDPEWAYINSSGVVGYVLRRHLE”, the “soluble fraction (log2)” value amounted to 0.326.

“HMKLTINIDAAHDGKTIKQLFAEKGYSLELIKKFKYDGAIEVNGERKTVRWVLREGDLLVLEAN”: the “soluble fraction (log2)” value was -0.683.

For “HMKLTNIQYETLKVVVESRAKIDEEEGITIKLEDIKKYIDQAISFTGLVGDDEDYKKLFADMEYRFKIQ”, the “soluble fraction (log2)” value is -0.925.

As for “HMKLVAAGYHQNRLLVLLGIQAEELQAKRLLASFDRFRGREATPKPPIHDSARRWLRDTYHHVMNQVPVEL”, the “soluble fraction (log2)” value is -0.432.

For the sequence “HMKMHKIIKERRLALNFTQEQVAKYLGVTTPAVNKWEKGISYPDISLLPALARLLDTDLNTLLSF”, the “soluble fraction (log2)” value was -1.26.

“HMKMLPAEVLTHPAVVALIERGAPTGSITPEEVRQASEDAAVEPRHLKALLAHLSALGISVQIP”: the “soluble fraction (log2)” value is -0.266.

For “HMKMLSIQRREAIRALLLEKESITIAEVMEKFQISVETARRDFDALADEGFLNKVYGGATLKK”, the “soluble fraction (log2)” value is -1.24.

Regarding “HMKMPNGYGSITKLSGKRRKPWRVRKTAGWELDAKTQKLKQTYINIGYYETRADAMSALVSYNEDP”, the “soluble fraction (log2)” value is -0.151.

For the sequence “HMKMQPVISQGVLYINNVTDVRTIEVFDISGRIVADAAASTTVNIAHLNEGPYIVKVTTVNGIESIKILNK”, the “soluble fraction (log2)” value was -0.889.

For the sequence “HMKNAMTDIYLEEIKKILTKNEFLVYTLRELNNFSVQFITDNYDLSEKTIYNSVYRAKKKIDRHFT”, the “soluble fraction (log2)” value was -0.696.

Consider “HMKNDKLLIFMELKGISRTQLSKSTGIPASTLGRIINGDVQKIKAVYMEAIANALDTSIHTIFDV”, for which the “soluble fraction (log2)” value is -0.352.

For the sequence “HMKNDNIHMMASKINGIALEVGVLTPGMHPKNDLSEGEVGYIVTNLKTTREAKVGDTVTLAKKPAATPLPG”, the “soluble fraction (log2)” value was found to be 0.187.

As for “HMKNETFAITSEDAGKRLDVWLTNILGDYSRSYVERLVEQGNVTVGGKTVKAGYKLKAGDSVQVSIPGPK”, the “soluble fraction (log2)” value was found to be 0.0982.

As to “HMKNISSEEDREKALSLGITQEFIDNKGRYFITVPNKPSNFKEQALNIQKEISEQIDTVINKRFEF”, the “soluble fraction (log2)” value was -0.263.

Turning to “HMKNLDILTPKEIEVLNLVAKGYSNSKISKELDIAEVTVKKHIGSMFQKLDVKDRLSLALIL”, the “soluble fraction (log2)” value is -0.52.

As for “HMKNLKPSTEVILKELVKRYPDQTEFRKQQIVDVGQSFGYKGKDYGPIFDADNRVKIGTYDLAGLIVPLQR”, the “soluble fraction (log2)” value amounted to 0.0835.

On to “HMKNLNVIDLSALRTLELKESSDWTLIQKRFKLLVKKYHPDMNAGSKQYEEKLKKITLAYTHLKKLF”, for which the “soluble fraction (log2)” value is -0.715.

With “HMKNQQLFNIGDRFQVDGVAYRMEKLFPENGTVEVYNLGVGRHKTMSFEEILALWNSGKLLFEI”, the “soluble fraction (log2)” value is -0.945.

Turning to “HMKNSIKLDNFVGMSYDEVISNKEYDFNFVSAFEKTSDYEAGTIIGQTPAAEERVMVGTTVTLTVAQP”, the “soluble fraction (log2)” value stood at 0.158.

“HMKNTADRVYENLFHMLVSGDYAPGDRIPSEHELKERFNVSRNTIRAALNRMNALGIIETRQGDGTYLKG”: the “soluble fraction (log2)” value is -0.147.

With “HMKNTFGLTEREMEVLALIVDGLSNPEIAEKLFITRATAKAHVHSILQKLYVDDRTQAAVTAMREGL”, the “soluble fraction (log2)” value is -1.14.

For “HMKNTIPVPHIIGLSEQEARETLERAGLQLNVIKTEPNTKYESGQVTDTNPNEGIKVPKGTIVNVVLADS”, the “soluble fraction (log2)” value is -0.0342.

With “HMKNTLDAYIRYLSNFLSRNNYPEAEDLSFINARADQAYEVFLEARRGGVDVSTAEELAMIALMQGY”, the “soluble fraction (log2)” value is -1.34.

Turning to “HMKNVEEMILGKLKRKVSENLENASFEEIILVDAEKSVYKGIIKANYIEYYFRVNLSTGEVLSWKLK”, the “soluble fraction (log2)” value is -0.755.

With “HMKPAFTPYVVKVTADVLNVRSGPGTNYGITTKVKKGEAYTIVEEKNGWGKLKSGAGWISLEYTVK”, the “soluble fraction (log2)” value is -0.0552.

For “HMKPALFSADELNRLYRYGLSLTGERDRAYDLLQTALEKYLRQSQAPANAMRYVRKIMHNQFIDDYR”, the “soluble fraction (log2)” value was -0.0906.

Regarding “HMKPDWLSDGRLIPDEVMSHLRKIAVHAVEEMGYSPEDVIKILGLSRNTIYDWLKRFREHGYEGLDTKK”, the “soluble fraction (log2)” value was -0.738.

In the case of “HMKPLAQQVNDYLAATRTSIATLANEIPGYSRPTISRYLAGKYDGDITTIEKLLAEWLAQRTG”, the “soluble fraction (log2)” value was -0.581.

With “HMKPNEYVSGETFPYLGKNYRLKVLHGSENSVRLKGGYFITTISNRDSQLSTVKSLLEDWYQTHADK”, the “soluble fraction (log2)” value was -0.163.

Take “HMKPPTIELSYSEFIELVERGKVSKVIFSSDNYTLKGETVNGENFETVRPPFLEDNLSEILTIHKVPVSSE”: the “soluble fraction (log2)” value was -0.785.

Regarding “HMKPSKTVYTTANLNLRNGASMSAAVYTSVSRGTALATTGRTTSGWTQITHRGRTLWASSKYLTTTTPP”, the “soluble fraction (log2)” value came out at 0.155.

On to “HMKPSNRSYPTALRMEVIGIIRERYADFGPTLAGEKLAELHGIHLGRETIRQWMMAAGLWKDRR”, for which the “soluble fraction (log2)” value was -0.759.

For the sequence “HMKPTVKVPNVVNLSLRNAQIQLQNYGLEVGSISYESSRFKNAVLRQSISEGSVVEKGTTINLVISDGL”, the “soluble fraction (log2)” value turned out to be 0.178.

Take “HMKPVPPLNGTSLRDLALGYAGRYATTAARLKHYLQRKLRERGWGGEDEPDLDGLVARLVELGYVNDEVF”: the “soluble fraction (log2)” value was -0.723.

As to “HMKQAINFSDLNSLEEGLGIAIRQKWNEVSINDVPEDKIELVEDWINNNRGKYKGINISIGSTY”, the “soluble fraction (log2)” value came out at 0.0722.

With “HMKQAVESAEAIFEEIARIKKLSLVKSEAEEIARKTGLQKFTIASQLLKNQHAYEMDESEIASLWDKKI”, the “soluble fraction (log2)” value was -0.594.

Regarding “HMKQDFVYNGFVEAKGDDLMVQINYKGETYYVTEGESFGGFTVKSANKDKVVLSGQGGAETVLEFR”, the “soluble fraction (log2)” value was -0.536.

Consider “HMKQENRLKILRKEKGLTQTKLANEIGVSKRTIIAWENDERQIKPDKAQQLADYFGVKEGYLLGYTNN”, for which the “soluble fraction (log2)” value is -0.0458.

Turning to “HMKQESSEDLLNEVIDKVIDSNPDEKNRLLDGELKLVSFFMGQVMKETKGKANPGVINGLIKKKFNI”, the “soluble fraction (log2)” value is -0.748.

In the case of “HMKQISNTDELEAMIQKIIEDNSQQVEKFRSGNEKLFGWFVGQVMKNTQGAANPKVVNEILKKSLK”, the “soluble fraction (log2)” value is 0.181.

Turning to “HMKQISNTDELESMAKNIIQENPDQVSKFKNGNEKLFGWFVGQMMKSTGGTANPKVVNEILKNLLN”, the “soluble fraction (log2)” value was found to be 0.162.

Take “HMKQLIGYSVIDIKMGKLGEISFVNSKTAQALIHVSKDGKGFYFPWHKQFVKNIDAEKGIMEVEIPKEFLD”: the “soluble fraction (log2)” value is -0.85.

On to “HMKQLNKRQNDILSFAEKQGYVSVENLAKLFSVTQQTIRRDINYLSDNELLVRTHGGAYYSS”, for which the “soluble fraction (log2)” value was -0.0112.

Take “HMKQNRNLPVQIINNGKIIESVMTEFNLDIDWVYSEAKRLGYKNIKDIFYAGINRDGQFFIVPLF”: the “soluble fraction (log2)” value is -1.35.

“HMKQNVEAVIKERAIEKARAQVKAVSTHMALEAQSLSKEQLEFEIERIAAQIIDKMPSDFWND”: the “soluble fraction (log2)” value was -0.819.

Consider “HMKQPNFTVIETKILELLFQKDLSSREMQEILKISKDNLIFALQNLLEQEKIVLQTSNTYTVN”, for which the “soluble fraction (log2)” value was -2.02.

For the sequence “HMKQPVPDEIYFKRLANATEALGRYPRASERKKFGLNMSKRRYPTLTDFINKAIELGYVEDFR”, the “soluble fraction (log2)” value was determined as 0.22.

As for “HMKQQAYEQGKAAYQSGDWLRAVTQLGQVKEAGEKNGEVDHLLGNAYMKLGQFESAAYAYNSALEDVA”, the “soluble fraction (log2)” value came out at 0.123.

Regarding “HMKQTMIVVMEKDAPQSQIDDMVKRIEGLGLKAHTIVGTQRTVVAAIGEKREDTRESLAGSPGVAEVVPIL”, the “soluble fraction (log2)” value is -0.137.

For “HMKQYVEPASETEKMVVELWEKVLLTEKIGMHDDFFELGGHSLKAMRLISLYHQEFNVRLSLKSLFEKLK”, the “soluble fraction (log2)” value was -1.07.

As to “HMKRAVGLDEYRDSIVLKKPEGYTEESYAAYKNAYDALMALDSKETTAEMFANAKSAFEAAQAGLVQKP”, the “soluble fraction (log2)” value is 0.0195.

On to “HMKRIFEKKVVTESLNGLRLDKAAATLFADFSRNELGQWIKDEALLVNGKAKKVKEKVSEGDVLALDVELI”, for which the “soluble fraction (log2)” value was found to be 0.0389.

For the sequence “HMKRISDEDLLVMRRIDEVHTYHPTWGYRTITRILRRDDHLLINPKKVRRIMRDMGIYTIYPK”, the “soluble fraction (log2)” value is -0.41.
